Reference: article PMC9138527

How the values were obtained:
Assay in all cases: EMSA
[1] = test system: Protamine-like proteins mixture (PL-II, PL-III, PL-IV), 1 nM Cr(VI)-exposed mussels (Mytilus galloprovincialis); details: mussels exposed to 1 nM Cr(VI); saturation not reached; DNA (150 ng pGEM3 or 450 ng sperm DNA) plus PLs in ultrapure water, 30 uL, 5 min, room temperature; TBE to 1x added just before the run; 1% (plasmid) or 0.6% …
[2] = test system: Protamine-like proteins mixture (PL-II, PL-III, PL-IV), 10 nM Cr(VI)-exposed mussels (Mytilus galloprovincialis); details: mussels exposed to 10 nM Cr(VI), DNA (150 ng pGEM3 or 450 ng sperm DNA) plus PLs in ultrapure water, 30 uL, 5 min, room temperature, TBE to 1x added just before the run, 1% (plasmid) or 0.6% …
[3] = test system: Protamine-like proteins mixture (PL-II, PL-III, PL-IV), 100 nM Cr(VI)-exposed mussels (Mytilus galloprovincialis); details: mussels exposed to 100 nM Cr(VI), DNA (150 ng pGEM3 or 450 ng sperm DNA) plus PLs in ultrapure water, 30 uL, 5 min, room temperature, TBE to 1x added just before the run, 1% (plasmid) or 0.6% …
[4] = test system: Protamine-like proteins mixture (PL-II, PL-III, PL-IV), unexposed mussels (Mytilus galloprovincialis); details: DNA (150 ng pGEM3 or 450 ng sperm DNA) plus PLs in ultrapure water, 30 uL, 5 min, room temperature, TBE to 1x added just before the run, 1% (plasmid) or 0.6% …
[5] = scale: wt/wt protein/DNA at almost complete saturation

| Substance | binding signal (wt/wt protein/DNA at saturation) [1] | binding signal (wt/wt protein/DNA at saturation) [2] | binding signal (wt/wt protein/DNA at saturation) [3] | binding signal (wt/wt protein/DNA at saturation) [4] | binding signal [2, 5] | binding signal [3, 5] | binding signal ([4]; unexposed, scale: wt/wt protein/DNA at almost complete saturation) |
| --- | --- | --- | --- | --- | --- | --- | --- |
| pGEM3 plasmid | > 1.8 | 0.8 | 0.8 | 0.8 | – | – | – |
| sperm genomic DNA | – | – | – | – | 0.6 | 0.6 | 0.6 |
